Laboratory results reported in patent publication US20090304768A1, “Gastro-Retentive System for the Delivery of Macromolecules” (INTEC PHARMA LTD, priority 2006, published 2009).

Tests used:
[1] = Stability assay of PTH 1-34 in various buffer solutions over 24 hr at 37° C.; assay type: physicochemical
Description: The stability of PTH 1-34 in various buffer solutions over 24 hr at 37° C. was evaluated to allow selection of a suitable buffer for in vitro release experiments. The lyophilized peptide (0.1 mg) was dissolved in each buffer solution that was tested. The concentration of PTH 1-34 in samples withdrawn from the solution at 0, 4, 8, and 24 hours were analyzed by HPLC (Gemini (Phenomenex) 5 μ C18, 250×4.6; mobile phase˜0.1% Trifluoroacetic acid/Acetonotrile:0.1% Trifluoroacetic acid/Water, gradient elution, 1 mL/min; 100 μL injection, UV PDA detection at 214).

[2] = Stability of the peptide in 1% acid solution, incubation for 24 hr at 37° C.; assay type: physicochemical; details: 1% acetic acid
Description: PTH 1-34 (molecular weight of 4117.8, UCB Bioproducts, USA) was received as a lyophilized powder. The peptide was made up in 1% acetic acid. The stability of the peptide in 1% acid solution was confirmed by incubating it for 24 hr at 37° C.

Substance: PTH 1-34: Parathyroid hormone fragment 1-34, molecular weight 4117.8, UCB Bioproducts, lyophilized powder
- stability at pH=2.2 over 24 hr ([1]; KCl/Cl buffer pH=2.2, over 24 hr): stable
- stability at pH=1.2 ([1]; buffer pH=1.2, 37° C.): decreased stability
- stability at pH>7 ([1]; buffer pH>7, 37° C.): decreased stability
- stability in various buffer solutions ([1]; various buffer solutions, 24 hr at 37° C.): stable over a wide range of pH values
- stability of the peptide in 1% acid solution [2]: confirmed
